Measured values as given in IntAct's records for PubMed 35512704.

B1: Mothers against decapentaplegic homolog 4 (Homo sapiens), Q13485 (parent)
chain: MDNMSITNTPTSNDACLSIVHSLMCHRQGGESETFAKRAIESLVKKLKEKKDELDSLITAITTNGAHPSKCVTIQRTLDGRLQVAGRKGFPHVIYARLWRWPDLHKNELKHVKYCQYAFDLKCDSVCVNPYHYERVVSPGIDLSGLTLQSNAPSSMMVKDEYVHDFEGQPSLSTEGHSIQTIQHPPSNRASTETYSTPALLAPSESNATSTANFPNIPVASTSQPASILGGSHSEGLLQIASGPQPGQQQNGFTGQPATYHHNSTTTWTGSRTAPYTPNLPHHQNGHLQHHPPMPPHPGHYWPVHNELAFQPPISNHPAPEYWCSIAYFEMDVQVGETFKVPSSCPIVTVDGYVDPSGGDRFCLGQLSNVHRTEAIERARLHIGKGVQLECKGEGDVWVRCLSDHAVFVQSYYLDREAGRAPGDAVHKIYPSAYIKVFDLRQCHRQMQQQAATAQAAAAAQAAAVAGNIPGPGSVGGIAPAISLSAAAGIGVDDLRRLCILRMSFVKGWGPDYPRQSIKETPCWIEIHLHRALQLLDEVLHTMPIADPQPLD
partner: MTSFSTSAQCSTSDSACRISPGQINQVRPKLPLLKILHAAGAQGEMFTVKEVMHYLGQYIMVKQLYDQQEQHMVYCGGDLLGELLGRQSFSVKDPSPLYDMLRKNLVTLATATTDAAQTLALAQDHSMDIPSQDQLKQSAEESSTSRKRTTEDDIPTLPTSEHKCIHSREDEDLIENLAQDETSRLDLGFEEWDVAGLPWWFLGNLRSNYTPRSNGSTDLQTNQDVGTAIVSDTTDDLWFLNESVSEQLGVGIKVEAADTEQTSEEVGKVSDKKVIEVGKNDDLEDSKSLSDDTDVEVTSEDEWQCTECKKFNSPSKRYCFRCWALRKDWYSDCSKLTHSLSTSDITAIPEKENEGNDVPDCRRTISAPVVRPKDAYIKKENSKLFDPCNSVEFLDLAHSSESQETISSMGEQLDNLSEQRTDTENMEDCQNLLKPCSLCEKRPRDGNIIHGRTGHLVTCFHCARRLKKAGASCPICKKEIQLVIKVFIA
B2: Mothers against decapentaplegic homolog 4 (Homo sapiens), Q13485 (parent)
chain: B1 chain
partner: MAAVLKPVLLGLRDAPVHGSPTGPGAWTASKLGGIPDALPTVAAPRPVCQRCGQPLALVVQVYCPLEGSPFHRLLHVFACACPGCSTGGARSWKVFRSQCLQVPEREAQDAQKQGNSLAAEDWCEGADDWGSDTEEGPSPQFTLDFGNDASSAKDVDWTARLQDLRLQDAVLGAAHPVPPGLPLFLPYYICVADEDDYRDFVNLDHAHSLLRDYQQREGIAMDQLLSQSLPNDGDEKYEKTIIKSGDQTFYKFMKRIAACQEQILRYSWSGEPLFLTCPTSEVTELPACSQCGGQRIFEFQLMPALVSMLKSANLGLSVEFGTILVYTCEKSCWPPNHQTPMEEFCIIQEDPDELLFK
B3: Mothers against decapentaplegic homolog 4 (Homo sapiens), Q13485 (parent)
chain: B1 chain
partner: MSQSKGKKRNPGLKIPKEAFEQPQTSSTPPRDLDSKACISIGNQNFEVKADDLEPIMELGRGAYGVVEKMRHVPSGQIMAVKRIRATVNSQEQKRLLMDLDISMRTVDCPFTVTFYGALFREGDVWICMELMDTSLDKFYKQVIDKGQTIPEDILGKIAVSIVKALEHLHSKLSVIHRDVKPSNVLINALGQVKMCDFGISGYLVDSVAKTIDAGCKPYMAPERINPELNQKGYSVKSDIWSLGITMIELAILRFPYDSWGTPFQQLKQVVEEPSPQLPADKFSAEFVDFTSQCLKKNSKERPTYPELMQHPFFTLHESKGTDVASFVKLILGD
B4: Mothers against decapentaplegic homolog 4 (Homo sapiens), Q13485 (parent)
chain: B1 chain
partner: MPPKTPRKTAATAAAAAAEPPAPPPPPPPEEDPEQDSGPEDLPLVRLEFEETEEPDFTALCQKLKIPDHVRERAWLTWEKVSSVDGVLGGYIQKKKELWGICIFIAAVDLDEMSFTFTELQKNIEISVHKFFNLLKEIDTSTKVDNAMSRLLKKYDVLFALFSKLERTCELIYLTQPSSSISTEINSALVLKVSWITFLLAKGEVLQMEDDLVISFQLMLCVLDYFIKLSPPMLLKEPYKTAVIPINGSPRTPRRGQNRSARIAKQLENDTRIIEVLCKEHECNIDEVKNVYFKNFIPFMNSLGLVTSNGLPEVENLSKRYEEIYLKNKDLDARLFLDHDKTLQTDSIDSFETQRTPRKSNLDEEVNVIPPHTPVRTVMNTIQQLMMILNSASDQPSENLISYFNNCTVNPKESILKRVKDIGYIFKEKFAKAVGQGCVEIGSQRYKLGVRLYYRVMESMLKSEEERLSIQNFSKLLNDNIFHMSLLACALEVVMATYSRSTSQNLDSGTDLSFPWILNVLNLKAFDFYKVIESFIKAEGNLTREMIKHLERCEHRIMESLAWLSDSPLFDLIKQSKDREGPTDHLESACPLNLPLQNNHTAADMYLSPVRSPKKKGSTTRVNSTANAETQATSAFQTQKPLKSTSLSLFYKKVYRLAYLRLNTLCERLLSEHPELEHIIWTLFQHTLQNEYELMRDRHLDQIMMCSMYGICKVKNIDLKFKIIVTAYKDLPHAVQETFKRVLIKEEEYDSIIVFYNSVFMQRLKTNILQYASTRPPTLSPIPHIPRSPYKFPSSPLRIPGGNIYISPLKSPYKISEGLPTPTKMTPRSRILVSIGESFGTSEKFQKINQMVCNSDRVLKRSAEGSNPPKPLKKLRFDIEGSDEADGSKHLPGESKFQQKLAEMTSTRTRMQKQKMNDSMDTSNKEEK
B5: Mothers against decapentaplegic homolog 4 (Homo sapiens), Q13485 (parent)
chain: B1 chain
partner: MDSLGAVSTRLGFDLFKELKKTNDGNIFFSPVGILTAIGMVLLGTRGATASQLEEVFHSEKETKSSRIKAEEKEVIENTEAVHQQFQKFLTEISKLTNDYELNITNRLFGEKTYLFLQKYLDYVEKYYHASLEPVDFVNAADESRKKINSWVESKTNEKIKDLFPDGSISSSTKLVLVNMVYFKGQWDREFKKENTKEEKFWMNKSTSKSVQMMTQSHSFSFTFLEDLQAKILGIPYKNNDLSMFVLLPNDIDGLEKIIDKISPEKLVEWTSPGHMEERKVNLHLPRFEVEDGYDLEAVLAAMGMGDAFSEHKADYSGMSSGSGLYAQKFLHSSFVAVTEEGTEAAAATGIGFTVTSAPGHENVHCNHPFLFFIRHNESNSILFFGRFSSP
B6: Mothers against decapentaplegic homolog 4 (Homo sapiens), Q13485 (parent)
chain: B1 chain
partner: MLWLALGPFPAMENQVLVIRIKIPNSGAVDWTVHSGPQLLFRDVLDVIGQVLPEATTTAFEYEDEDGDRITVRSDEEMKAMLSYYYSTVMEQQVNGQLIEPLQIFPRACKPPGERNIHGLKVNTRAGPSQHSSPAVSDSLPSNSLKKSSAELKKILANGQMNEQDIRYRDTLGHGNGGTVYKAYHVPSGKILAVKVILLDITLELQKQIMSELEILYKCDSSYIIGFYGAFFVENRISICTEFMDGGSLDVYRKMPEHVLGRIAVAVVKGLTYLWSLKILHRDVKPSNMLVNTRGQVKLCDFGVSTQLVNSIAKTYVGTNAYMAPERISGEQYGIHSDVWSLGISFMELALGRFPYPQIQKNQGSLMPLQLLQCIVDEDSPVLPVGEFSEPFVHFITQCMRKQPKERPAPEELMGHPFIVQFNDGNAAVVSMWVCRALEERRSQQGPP
B7: Mothers against decapentaplegic homolog 4 (Homo sapiens), Q13485 (parent)
chain: B1 chain
partner: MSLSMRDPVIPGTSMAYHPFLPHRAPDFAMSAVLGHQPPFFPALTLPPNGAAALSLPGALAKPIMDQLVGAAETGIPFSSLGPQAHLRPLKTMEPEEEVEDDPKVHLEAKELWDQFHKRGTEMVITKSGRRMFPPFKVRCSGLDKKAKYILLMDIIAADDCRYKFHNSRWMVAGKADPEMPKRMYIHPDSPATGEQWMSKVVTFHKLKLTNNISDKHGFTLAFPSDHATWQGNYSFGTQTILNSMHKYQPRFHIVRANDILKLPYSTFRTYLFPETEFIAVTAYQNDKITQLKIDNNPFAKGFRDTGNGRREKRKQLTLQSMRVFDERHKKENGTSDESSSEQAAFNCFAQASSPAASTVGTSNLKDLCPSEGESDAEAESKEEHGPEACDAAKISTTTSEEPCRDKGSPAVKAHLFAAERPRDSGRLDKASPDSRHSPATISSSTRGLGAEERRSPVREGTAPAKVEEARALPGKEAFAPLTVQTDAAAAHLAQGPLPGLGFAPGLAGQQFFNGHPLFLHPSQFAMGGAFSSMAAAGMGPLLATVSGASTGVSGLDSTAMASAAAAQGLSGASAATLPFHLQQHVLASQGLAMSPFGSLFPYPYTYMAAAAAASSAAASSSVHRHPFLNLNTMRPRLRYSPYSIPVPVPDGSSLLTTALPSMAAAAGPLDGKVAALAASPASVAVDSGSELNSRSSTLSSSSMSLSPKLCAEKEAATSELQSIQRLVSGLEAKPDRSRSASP
B8: Mothers against decapentaplegic homolog 4 (Homo sapiens), Q13485 (parent)
chain: B1 chain
partner: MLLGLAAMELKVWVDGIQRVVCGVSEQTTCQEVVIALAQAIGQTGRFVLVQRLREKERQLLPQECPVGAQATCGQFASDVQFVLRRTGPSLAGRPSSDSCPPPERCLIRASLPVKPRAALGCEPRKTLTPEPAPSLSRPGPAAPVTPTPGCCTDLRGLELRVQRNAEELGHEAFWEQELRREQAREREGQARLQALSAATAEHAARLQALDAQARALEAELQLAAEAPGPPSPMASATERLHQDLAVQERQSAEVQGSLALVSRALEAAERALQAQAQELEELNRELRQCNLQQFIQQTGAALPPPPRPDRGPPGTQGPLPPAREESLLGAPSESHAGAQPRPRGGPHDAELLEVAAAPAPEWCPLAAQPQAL

Variants of: B1
Settings: with mdm4_human MDM4, O15151

Row | effect of a mutation on the interaction | Variant
1 | with no effect | D351H

Variants of: B2
Settings: with pdd2l_human PDCD2L

Row | effect of a mutation on the interaction | Variant
2 | with no effect | D351H

Variants of: B2
Settings: with pdd2l_human PDCD2L
Remark: another data set of the same source

Row | effect of a mutation on the interaction | Variant
3 | with no effect | R361C

Variants of: B2
Settings: with pdd2l_human PDCD2L
Remark: another data set of the same source

Row | effect of a mutation on the interaction | Variant
4 | with no effect | R361H

Variants of: B2
Settings: with pdd2l_human PDCD2L
Remark: another data set of the same source

Row | effect of a mutation on the interaction | Variant
5 | with no effect | G386D

Variants of: B3
Settings: with mp2k6_human MAP2K6, P52564

Row | effect of a mutation on the interaction | Variant
6 | with no effect | G386D

Variants of: B3
Settings: with mp2k6_human MAP2K6, P52564
Remark: another data set of the same source

Row | effect of a mutation on the interaction | Variant
7 | with no effect | R361C

Variants of: B3
Settings: with mp2k6_human MAP2K6, P52564
Remark: another data set of the same source

Row | effect of a mutation on the interaction | Variant
8 | with no effect | R361H

Variants of: B3
Settings: with mp2k6_human MAP2K6, P52564
Remark: another data set of the same source

Row | effect of a mutation on the interaction | Variant
9 | with no effect | D351H

Variants of: B4
Settings: with rb_human RB1, P06400

Row | effect of a mutation on the interaction | Variant
10 | with no effect | D351H

Variants of: B5
Settings: with spb13_human SERPINB13, Q9UIV8

Row | effect of a mutation on the interaction | Variant
11 | with no effect | R361C

Variants of: B5
Settings: with spb13_human SERPINB13, Q9UIV8
Remark: another data set of the same source

Row | effect of a mutation on the interaction | Variant
12 | with no effect | R361H

Variants of: B5
Settings: with spb13_human SERPINB13, Q9UIV8
Remark: another data set of the same source

Row | effect of a mutation on the interaction | Variant
13 | with no effect | G386D

Variants of: B5
Settings: with spb13_human SERPINB13, Q9UIV8
Remark: another data set of the same source

Row | effect of a mutation on the interaction | Variant
14 | with no effect | D351H

Variants of: B6
Settings: with mp2k5_human MAP2K5, Q13163

Row | effect of a mutation on the interaction | Variant
15 | with no effect | R361H

Variants of: B6
Settings: with mp2k5_human MAP2K5, Q13163
Remark: another data set of the same source

Row | effect of a mutation on the interaction | Variant
16 | with no effect | R361C

Variants of: B6
Settings: with mp2k5_human MAP2K5, Q13163
Remark: another data set of the same source

Row | effect of a mutation on the interaction | Variant
17 | with no effect | G386D

Variants of: B6
Settings: with mp2k5_human MAP2K5, Q13163
Remark: another data set of the same source

Row | effect of a mutation on the interaction | Variant
18 | with no effect | D351H

Variants of: B7
Settings: with tbx3_human TBX3, O15119

Row | effect of a mutation on the interaction | Variant
19 | with no effect | R361C

Variants of: B7
Settings: with tbx3_human TBX3, O15119
Remark: another data set of the same source

Row | effect of a mutation on the interaction | Variant
20 | with no effect | R361H

Variants of: B7
Settings: with tbx3_human TBX3, O15119
Remark: another data set of the same source

Row | effect of a mutation on the interaction | Variant
21 | with no effect | D351H

Variants of: B7
Settings: with tbx3_human TBX3, O15119
Remark: another data set of the same source

Row | effect of a mutation on the interaction | Variant
22 | with no effect | G386D

Variants of: B8
Settings: with rasf7_human RASSF7, Q02833

Row | effect of a mutation on the interaction | Variant
23 | with no effect | R361H
